Data taken from US20240270821A1, “GIP/GLP1/GCG TRI-RECEPTOR AGONISTS AND USES THEREOF” (priority 2023, published 2024).
Where a chain is given by its changes, count along the chain named. Starred links: 1 amine or outer side, 2 acyl side, 3 side chain; linkers in the order of their positions; H or OH if unused. Non-standard residues stand in square brackets, D forms with d. Groups on a side chain read outwards from the residue. No end group written: not given here. *: point of attachment. C20 diacid = O=C(O)CCCCCCCCCCCCCCCCCCC(=O)*; Phe(4-CN) = N#Cc1ccc(C[C@H](N)C(=O)O)cc1; αMePhe(2-F) = C[C@](N)(Cc1ccccc1F)C(=O)O; γGlu = O=C(O)[C@H](CCC(=O)[*:2])N[*:1]; NMeY = CN[C@@H](Cc1ccc(O)cc1)C(=O)O; αMeF = C[C@](N)(Cc1ccccc1)C(=O)O; αMeL = CC(C)C[C@](C)(N)C(=O)O; AEEA = NCCOCCOCC(=O)O; Aib = CC(C)(N)C(=O)O

What was measured:
hGIPR [1] = target: T1, hGIPR (Homo sapiens, UniProt P48546); test: Functional cAMP activation in the presence of 0.1% casein (no HSA); format: cell-based; conditions: in the presence of 0.1% casein (no HSA); geometric mean; read-out: Relative cAMP EC50, hGIPR;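 further: intracellular cAMP rise after 30 min at 37 °C read by HTRF against a standard curve, scaled between buffer alone (0%) and top control ligand concentration (100%), four-parameter fit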
T1 sequence (P48546 22-466): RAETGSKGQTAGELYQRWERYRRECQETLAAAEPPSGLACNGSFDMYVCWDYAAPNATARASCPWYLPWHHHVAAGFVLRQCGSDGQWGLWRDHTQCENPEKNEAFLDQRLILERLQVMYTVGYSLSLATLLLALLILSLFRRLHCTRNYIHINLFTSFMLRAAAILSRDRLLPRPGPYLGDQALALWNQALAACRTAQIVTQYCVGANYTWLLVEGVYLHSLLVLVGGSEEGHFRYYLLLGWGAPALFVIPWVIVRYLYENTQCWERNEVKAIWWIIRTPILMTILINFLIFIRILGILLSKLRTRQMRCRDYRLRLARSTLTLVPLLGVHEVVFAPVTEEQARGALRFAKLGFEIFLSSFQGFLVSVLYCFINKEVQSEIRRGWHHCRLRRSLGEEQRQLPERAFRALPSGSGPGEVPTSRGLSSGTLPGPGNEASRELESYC

human GcgR = human GcgR (Homo sapiens, UniProt P47871); test: Functional cAMP activity in the presence of 1% HSA; format: cell-based; conditions: read-out: cAMP Rel EC50, hGcgR
human GcgR, sequence (P47871 26-477): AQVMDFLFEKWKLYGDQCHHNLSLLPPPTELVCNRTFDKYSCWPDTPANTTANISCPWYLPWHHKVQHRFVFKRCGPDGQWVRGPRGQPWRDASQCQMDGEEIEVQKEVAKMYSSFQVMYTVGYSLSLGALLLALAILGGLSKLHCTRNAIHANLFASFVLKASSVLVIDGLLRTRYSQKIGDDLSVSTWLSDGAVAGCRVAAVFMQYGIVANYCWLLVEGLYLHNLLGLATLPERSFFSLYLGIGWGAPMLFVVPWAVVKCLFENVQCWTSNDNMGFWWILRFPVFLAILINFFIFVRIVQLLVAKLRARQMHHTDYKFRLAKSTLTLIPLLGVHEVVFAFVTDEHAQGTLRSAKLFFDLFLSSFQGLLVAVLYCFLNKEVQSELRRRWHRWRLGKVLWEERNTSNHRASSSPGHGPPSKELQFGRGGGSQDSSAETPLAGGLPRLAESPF

hGLP-1R [2] = target: T2, hGLP-1R (Homo sapiens, UniProt P43220); test: Functional cAMP activity in the presence of 1% HSA; format: cell-based; conditions: read-out: cAMP Rel EC50, hGLP-1R
Target sequence in this assay (P43220 24-463): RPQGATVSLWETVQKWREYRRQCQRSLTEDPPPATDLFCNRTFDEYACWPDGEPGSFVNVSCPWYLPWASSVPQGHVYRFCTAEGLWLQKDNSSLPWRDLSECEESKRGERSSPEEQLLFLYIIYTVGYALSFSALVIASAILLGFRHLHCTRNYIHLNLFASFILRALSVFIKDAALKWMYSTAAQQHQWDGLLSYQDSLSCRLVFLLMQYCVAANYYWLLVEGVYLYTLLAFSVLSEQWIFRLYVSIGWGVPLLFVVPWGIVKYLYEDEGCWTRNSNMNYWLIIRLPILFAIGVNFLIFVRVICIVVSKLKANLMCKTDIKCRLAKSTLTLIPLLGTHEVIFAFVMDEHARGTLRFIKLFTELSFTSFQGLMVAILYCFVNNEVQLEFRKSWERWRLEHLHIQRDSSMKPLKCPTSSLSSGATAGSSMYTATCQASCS

hGcgR = hGcgR (Homo sapiens, UniProt P47871); test: Functional cAMP activation in the presence of 0.1% casein (no HSA); format: cell-based; conditions: in the presence of 0.1% casein (no HSA); geometric mean; read-out: Relative cAMP EC50, hGcgR;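 further: intracellular cAMP rise after 30 min at 37 °C, read by HTRF against a cAMP standard curve, scaled from buffer only (0%) to maximal control ligand response (100%)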
hGcgR, sequence (P47871 26-477): as the sequence (P47871 26-477) above

hGIPR [3] = target: T1, hGIPR; test: Functional cAMP activity in the presence of 1% HSA; format: cell-based; conditions: read-out: cAMP Rel EC50, hGIPR
hGLP-1R [4] = target: T2, hGLP-1R; test: Functional cAMP activation in the presence of 0.1% casein (no HSA); format: cell-based; conditions: in the presence of 0.1% casein (no HSA); geometric mean; read-out: Relative cAMP EC50, hGLP-1R;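 further: intracellular cAMP rise after 30 min at 37 °C read by HTRF, normalized between buffer only (0%) and maximal control ligand (100%), four-parameter variable-slope fit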
Target sequence in this assay (P43220 24-463): as the sequence (P43220 24-463) above

hGLP-1R [5] = target: T2, hGLP-1R; test: GLP-1R CHO cell β-arrestin recruitment assay; format: cell-based; parameters: host or cells: CHO-K1 (PathHunter, assay-ready frozen cells);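 further: luminescence read after 90 min peptide exposure at 37 °C and a further 60 min with detection reagent at room temperature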
Target sequence in this assay (P43220 24-463): as above
Target sequence in this assay (P32121 whole entry partner): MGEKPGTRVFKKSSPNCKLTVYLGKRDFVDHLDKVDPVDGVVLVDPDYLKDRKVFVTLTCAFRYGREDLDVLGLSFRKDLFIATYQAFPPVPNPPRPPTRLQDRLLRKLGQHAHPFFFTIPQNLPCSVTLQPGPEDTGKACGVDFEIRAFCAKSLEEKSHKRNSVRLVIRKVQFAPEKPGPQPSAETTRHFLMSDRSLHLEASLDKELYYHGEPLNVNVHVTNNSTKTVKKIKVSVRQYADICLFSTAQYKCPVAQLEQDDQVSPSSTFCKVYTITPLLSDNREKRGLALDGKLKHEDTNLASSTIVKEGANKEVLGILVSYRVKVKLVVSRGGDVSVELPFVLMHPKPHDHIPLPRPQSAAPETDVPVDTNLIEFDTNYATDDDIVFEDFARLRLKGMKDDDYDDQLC

[6] = target: human GLP-1R (SNAP-GLP-1R expressed in HEK293 cells) (human) (UniProt P43220); test: cell-based or functional assay
human GLP-1R (SNAP-GLP-1R expressed in HEK293 cells) (human), sequence (P43220 24-463): as the sequence (P43220 24-463) above

[7] = target: human glucagon receptor (human) (UniProt P47871); test: cell-based or functional assay
human glucagon receptor (human), sequence (P47871 26-477): as the sequence (P47871 26-477) above

[8] = target: Pro-Link-tagged Human GLP-1R (human) (UniProt P43220); test: cell-based or functional assay
Pro-Link-tagged Human GLP-1R (human), sequence (P43220 24-463): as the sequence (P43220 24-463) above

hGLP-1R [9] = target: T2, hGLP-1R; test: cell-based or functional assay
Target sequence in this assay (P43220 24-463): as above

[10] = target: T3, human GIP receptor (human) (UniProt P48546); test: cell-based or functional assay
T3 sequence (looked up): T1 sequence (P48546 22-466)

[11] = target: human GLP1-R (SNAP-GLP-1R expressed in HEK293 cells) (human) (UniProt P43220); test: cell-based or functional assay
human GLP1-R (SNAP-GLP-1R expressed in HEK293 cells) (human), sequence (P43220 24-463): as above

Molecule: H-[NMeY][Aib]QGT[αMeF]TSDYSILLDKQAAK([AEEA-AEEA-γGlu-C20 diacid])AFVQWLIAGGPSSGEPPPSEG-NH2 [Example 301]
- EC50 (hGIPR [1]): 0.722 nM
- EC50 (human GcgR): 1500 nM
- EC50 (hGLP-1R [2]): 82.4 nM
- EC50 (hGcgR): 6.73 nM
- EC50 (hGIPR [3]): 81.8 nM
- EC50 (hGLP-1R [4]): 0.641 nM
- EC50 (hGLP-1R [5]; CHO-K1 PathHunter, β-arrestin-2, 0.1% casein, read-out: hGLP1R β-arrestin Rel EC50): 13.2 nM
- % Stimulation Max (hGLP-1R [5]; normalized to GLP-1(7-36) as maximum control): 59.1%

Molecule: Y[Aib]QGT[αMePhe(2-F)]TSD[Phe(4-CN)]SILLDKQAQK([AEEA-AEEA-γGlu-C20 diacid])AFIEYLLEGGPSSGEPPPSEG-NH2 [Example 321]
- GLP1R Internalization EC50 [6]: 27.1 nM
- Internalization % TOP [6]: 92.8%
- Relative cAMP EC50 [7]: 4.49 nM
- cAMP Rel EC50 (1% HSA) [7]: 836 nM
- % Stimulation Max [8]: 90.1%
- hGLP1R β-arrestin Rel EC50 [8]: 8.78 nM
- Relative cAMP EC50 (hGLP-1R [9]): 0.798 nM
- cAMP Rel EC50 (1% HSA) (hGLP-1R [9]): 110 nM
- Relative cAMP EC50 [10]: 0.0912 nM
- cAMP Rel EC50 (1% HSA) [10]: 13 nM

B1: Example 1 (peptide)
chain: YXQGTFTSDFSKXLDKKAQXAFIEYLLAGGPSSGEPPPSEG
modifications: synthetic construct; SITE 2: note = 2-Aminoisobutyric Acid; SITE 13: note = alpha-methyl-leucine; SITE 17: note = Lysine is chemically modified through conjugation of the epsilon-amino group of the Lysine side chain with (2-[2-(2-Amino-ethoxy)-ethoxy]-acetyl)-(gamma-Glu)-CO-(CH2) 18-CO2H; SITE 20: n
- GLP1R Internalization EC50 [11]: 44.7 nM
- Internalization % TOP [11]: 69.1%
- Relative cAMP EC50 [7]: 3.72 nM
- cAMP Rel EC50 (in the presence of 1% HSA) [7]: 1690 nM
- % Stimulation Max [8]: 17.3%
- hGLP1R β-arrestin Rel EC50 [8]: > 10000 nM
- Relative cAMP EC50 (hGLP-1R [9]): 1.42 nM
- cAMP Rel EC50 (in the presence of 1% HSA) (hGLP-1R [9]): 524 nM
- Relative cAMP EC50 [10]: 0.207 nM
- cAMP Rel EC50 (in the presence of 1% HSA) [10]: 73.9 nM

B2: Example 3 (peptide)
chain: B1 chain with E40S, G41E
modifications: synthetic construct; SITE 2: note = 2-Aminoisobutyric Acid; SITE 13: note = alpha-methyl-leucine; SITE 17: note = Lysine is chemically modified through conjugation of the epsilon-amino group of the Lysine side chain with (2-[2-(2-Amino-ethoxy)-ethoxy]-acetyl)-(gamma-Glu)-CO-(CH2) 18-CO2H; SITE 20: n
- GLP1R Internalization EC50 [11]: 49.2 nM
- Internalization % TOP [11]: 69.7%
- Relative cAMP EC50 [7]: 3.8 nM
- cAMP Rel EC50 (in the presence of 1% HSA) [7]: 1590 nM
- % Stimulation Max [8]: 16.5%
- hGLP1R β-arrestin Rel EC50 [8]: > 10000 nM
- Relative cAMP EC50 (hGLP-1R [9]): 1.67 nM
- cAMP Rel EC50 (in the presence of 1% HSA) (hGLP-1R [9]): 546 nM
- Relative cAMP EC50 [10]: 0.217 nM
- cAMP Rel EC50 (in the presence of 1% HSA) [10]: 48.1 nM

B3: Example 2 (peptide)
chain: B1 chain with E40G, G41E
modifications: synthetic construct; SITE 2: note = 2-Aminoisobutyric Acid; SITE 13: note = alpha-methyl-leucine; SITE 17: note = Lysine is chemically modified through conjugation of the epsilon-amino group of the Lysine side chain with (2-[2-(2-Amino-ethoxy)-ethoxy]-acetyl)-(gamma-Glu)-CO-(CH2) 18-CO2H; SITE 20: n
- GLP1R Internalization EC50 [11]: 49.5 nM
- Internalization % TOP [11]: 66.8%
- Relative cAMP EC50 [7]: 4.29 nM
- cAMP Rel EC50 (in the presence of 1% HSA) [7]: 1630 nM
- % Stimulation Max [8]: 12.3%
- hGLP1R β-arrestin Rel EC50 [8]: > 10000 nM
- Relative cAMP EC50 (hGLP-1R [9]): 1.65 nM
- cAMP Rel EC50 (in the presence of 1% HSA) (hGLP-1R [9]): 631 nM
- Relative cAMP EC50 [10]: 0.207 nM
- cAMP Rel EC50 (in the presence of 1% HSA) [10]: 75.5 nM

B4: Example 4 (peptide)
chain: B1 chain with G41E
modifications: synthetic construct; SITE 2: note = 2-Aminoisobutyric Acid; SITE 13: note = alpha-methyl-leucine; SITE 17: note = Lysine is chemically modified through conjugation of the epsilon-amino group of the Lysine side chain with (2-[2-(2-Amino-ethoxy)-ethoxy]-acetyl)-(gamma-Glu)-CO-(CH2) 18-CO2H; SITE 20: n
- GLP1R Internalization EC50 [11]: 49.1 nM
- Internalization % TOP [11]: 67.8%
- Relative cAMP EC50 [7]: 3.2 nM
- cAMP Rel EC50 (in the presence of 1% HSA) [7]: 1580 nM
- % Stimulation Max [8]: 15.8%
- hGLP1R β-arrestin Rel EC50 [8]: 23.2 nM
- Relative cAMP EC50 (hGLP-1R [9]): 1.66 nM
- cAMP Rel EC50 (in the presence of 1% HSA) (hGLP-1R [9]): 869 nM
- Relative cAMP EC50 [10]: 0.192 nM
- cAMP Rel EC50 (in the presence of 1% HSA) [10]: 62.3 nM

B5: Example 5 (peptide)
chain: B1 chain with E40S, G41E
modifications: synthetic construct; SITE 2: note = 2-Aminoisobutyric Acid; SITE 13: note = alpha-methyl-leucine; SITE 17: note = Lysine is chemically modified through conjugation of the epsilon-amino group of the Lysine side chain with (2-[2-(2-Amino-ethoxy)-ethoxy]-acetyl)2-(gamma-Glu)-CO-(CH2 )18-CO2H; SITE 20:
- GLP1R Internalization EC50 [11]: 53.4 nM
- Internalization % TOP [11]: 75%
- Relative cAMP EC50 [7]: 7.4 nM
- cAMP Rel EC50 (in the presence of 1% HSA) [7]: 2670 nM
- % Stimulation Max [8]: 18.4%
- hGLP1R β-arrestin Rel EC50 [8]: > 10000 nM
- Relative cAMP EC50 (hGLP-1R [9]): 2.37 nM
- cAMP Rel EC50 (in the presence of 1% HSA) (hGLP-1R [9]): 675 nM
- Relative cAMP EC50 [10]: 0.177 nM
- cAMP Rel EC50 (in the presence of 1% HSA) [10]: 32.5 nM

Molecule: Y[Aib]QGT[αMePhe(2-F)]TSDYSILLDKIAAK([AEEA-γGlu-C20 diacid])AFIEYLIEGGPSSGEPPPSEG-NH2 [Example 296]
- GLP1R Internalization EC50 [6]: 19.2 nM
- Internalization % TOP [6]: 87.2%
- Relative cAMP EC50 [7]: 1.72 nM
- cAMP Rel EC50 (in the presence of 1% HSA) [7]: 517 nM
- % Stimulation Max [8]: 55.2%
- hGLP1R β-arrestin Rel EC50 [8]: 14 nM
- Relative cAMP EC50 (hGLP-1R [9]): 0.536 nM
- cAMP Rel EC50 (in the presence of 1% HSA) (hGLP-1R [9]): 171 nM
- Relative cAMP EC50 [10]: 0.0806 nM
- cAMP Rel EC50 (in the presence of 1% HSA) [10]: 21.8 nM

Molecule: Y[Aib]QGTFTSDYSI[αMeL]LDKIAAK([AEEA-AEEA-γGlu-C20 diacid])QFVQWLIE[Aib]GPSSGEPPPSEG-NH2 [Example 323]
- GLP1R Internalization EC50 [6]: 28.2 nM
- Internalization % TOP [6]: 84.8%
- Relative cAMP EC50 [7]: 6.04 nM
- cAMP Rel EC50 (1% HSA) [7]: 1440 nM
- % Stimulation Max [8]: 44%
- hGLP1R β-arrestin Rel EC50 [8]: 10.8 nM
- Relative cAMP EC50 (hGLP-1R [9]): 1.56 nM
- cAMP Rel EC50 (1% HSA) (hGLP-1R [9]): 293 nM
- Relative cAMP EC50 [10]: 0.232 nM
- cAMP Rel EC50 (1% HSA) [10]: 37.7 nM
